Values of other authors as cited in PMC9464622, “The collectin SP-A and its trimeric recombinant fragment protect alveolar epithelial cells from the cytotoxic and proinflammatory effects of human cathelicidin in vitro” (Frontiers in Immunology, 2022).

Tested on: LL-37 and β-defensin 3
Description: The host appears to protect its own cells from LL-37 cytotoxicity by several mechanisms. […] In addition, the C1q globular head receptor (gC1qR, also known as p33) protects ...

B1: p33: negatively charged protein expressed on the surface of various cell types (protein, UniProt Q07021 74-282, looked up)
Complement component 1 Q …: LHTDGDKAFVDFLSDEIKEERKIQKHKTLPKMSGGWELELNGTEAKLVRKVAGEKITVTFNINNSIPPTFDGEEEPSQGQKVEEQEPELTSTPNFVVEVIKNDDGKKALVLDCHYPEDEVGQEDEAESDIFSIREVSFQSTGESEWKDTNYTLNTDSLDWALYDHLMDFLADRGVDNTFADELVELSTALEHQEYITFLEDLKSFVKSQ
- binding of LL-37 and β-defensin 3: binds LL-37 and β-defensin 3 with high affinity
